Source: patent US20180250395A1 (Janssen / Centocor, published 2018)
Substitutions are numbered along the chain they refer to. Where two headings read alike, the source gives them in different places. Each block holds one binder with its values, some of them ahead of it.

Experiments:
[1] = target: CD47 ECD-C15G mutant, His-tagged (human, UniProt Q08722 19-141, N-terminus Q1 cyclized as pyroglutamate (C47B161 complex); glycans at 5, 16, 32, 55, 93 except in the endoH-deglycosylated C47B161 complex); assay: Fab:CD47 complex isolated by chromatography and crystallized
Protocol: The His-tagged CD47 was deglycosylated and further purified by affinity chromatography. The complex CD47:Fab was prepared by mixing Fabs with excess CD47 at a molar ratio ranging from 1.2:1.0 to 1.5:1.0. The complex was incubated overnight at 4° C., separated from the uncomplexed species using size exclusion chromatography, and concentrated to 7.5-20 mg/mL in 20 mM HEPES pH 7.4, 100 mM NaCl, 5% glycerol. The concentrated complex was then used to set up crystallization trials using the sitting drop method at 20° C. and crystals were optimized by varying the protein to reservoir ratio.

[2] = target: T1, Cyno CD47 ECD protein, His-tagged, monomer (cyno); assay: ProteOn SPR; cyno KD / human KD
T1 construct: extracellular domain; also called cynomolgus CD47

[3] = target: T1, Cyno CD47 ECD protein, His-tagged, …; assay: ProteOn SPR; mAb captured, ECD monomer as analyte
[4] = target: T2, recombinant human CD47 extracellular domain (ECD), His-tagged, monomer (human, UniProt Q08722 19-141); assay: ProteOn SPR; mAb captured, ECD monomer as analyte
T2 construct: C-terminal 6xHis tag; monomeric fraction from Superdex 200; also called human CD47 ECD; CD47-ECD monomer

[5] = target: T3, recombinant human CD47 extracellular domain (ECD), His-tagged, dimer (human, UniProt Q08722 19-141); assay: MSD; CD47-ECD dimer binding to captured SIRP alpha-Fc, mAb 10 µg/ml
T3 construct: Dimeric fraction of the same His-tagged ECD; also called His-tagged CD47-ECD dimer protein

[6] = target: T4, human CD47 on Jurkat cells (human, UniProt Q08722 19-323); assay: MSD on Jurkat cells; blocks SIRP alpha-Fc binding
T4 construct: Endogenous CD47 of the cell lines; also called CD47-expressing Jurkat cells; CD47 on HL60 cells

[7] = target: T1, Cyno CD47 ECD protein, His-tagged, …; assay: ProteOn SPR; mAb captured, ECD monomer as analyte; remark: listed apart in the source
[8] = target: T2, recombinant human CD47 extracellular …; assay: ProteOn SPR; mAb captured, ECD monomer as analyte; remark: listed apart in the source
[9] = target: T2, recombinant human CD47 extracellular …; assay: ProteOn SPR
[10] = target: T1, Cyno CD47 ECD protein, His-tagged, …; assay: ProteOn SPR; cyno KD / human KD; remark: listed apart in the source

- binding result [1]: binds
B1: B6H12.2 Fab (Fab, V domains shown)
VH: EVKLVESGGDLVKPGGSLKLSCAASGFTFSGYGMSWVRQTPDKRLEWVATITSGGTYTYYPDSVKGRFTISRDNAKNTLYLQIDSLKSEDTAIYFCARSLAGNAMDYWGQGTSVTVSS
VL: DIVMTQSPATLSVTPGDRVSLSCRASQTISDYLHWYQQKSHESPRLLIKFASQSISGIPSRFSGSGSGSDFTLSINSVEPEDVGVYYCQNGHGFPRTFGGGTKLEIK
notes: Fab used for co-crystallization

- binding result [1]: binds
B2: C47B167 Fab (Fab, V domains shown)
VH: EVQLVQSGAEVKKPGESLKISCKGSGYTFTSYWMQWVRQMPGKGLEWMGEINPSNGRTDYNEKFRGQVTISADKSISTAYLQWSSLKASDTAMYYCARQGGSGYGNSYGFFDVWGQGTTVTVSS
VL: EIVLTQSPATLSLSPGERATLSCRASSSVSYMHWYQQKPGQAPRLLIYDTSRLASGIPARFSGSGSGTDFTLTISSLEPEDFAVYYCQQWRSNPYTFGGGTKVEIK
notes: His-tagged Fab from HEK293

- KD Ratio Cyno/Human [2]: 1.4
- Kd [3]: 9.7 nM
- Kd [4]: 6.69 nM
- % SIRP alpha Inhibition [5]: 96.7%
B5: C47B239 (antibody, V domains shown)
VH: EVQLVQSGAEVKKPGESLKISCKGSGYSFTSYWIGWVRQMPGKGLEWMGIIYPGDSDTRYSPSFQGQVTISADKSISTAYLQWSSLKASDTAMYYCARVGRFASHQLDYWGQGTLVTVSS
VL: EIVLTQSPATLSLSPGERATLSCRASQSVSNRLAWYQQKPGQAPRLLIYGASNRATGIPARFSGSGSGTDFTLTISSLEPEDFAVYYCQQGRSWPFTFGQGTKVEIK
notes: human IgG2sigma/kappa

- KD Ratio Cyno/Human [2]: 1.1
- Kd [3]: 9.23 nM
- Kd [4]: 8.59 nM
- % SIRP alpha Inhibition [5]: 93%
B7: C47B240 (antibody, V domains shown)
VH: B5 VH
VL: B5 VL with L33Q, Y49H, G50S
notes: human IgG2sigma/kappa

- KD Ratio Cyno/Human [2]: 1.1
- Kd [3]: 3.73 nM
- Kd [4]: 3.53 nM
- % SIRP alpha Inhibition [5]: 99.1%
B10: C47B238 (antibody, V domains shown)
VH: B5 VH
VL: B5 VL with S30G, N31S, G50W, N53T, R92A, S93Y
notes: human IgG2sigma/kappa

- KD Ratio Cyno/Human [2]: 1
- Kd [3]: 3.46 nM
- Kd [4]: 3.47 nM
- % SIRP alpha Inhibition [5]: 99.1%
B11: C47B242 (antibody, V domains shown)
VH: B5 VH with S31D, Y32S, M93V
VL: B5 VL
notes: human IgG2sigma/kappa

- KD Ratio Cyno/Human [2]: 0.7
- Kd [3]: 1.55 nM
- Kd [4]: 2.12 nM
- % SIRP alpha Inhibition [5]: 99.8%
B13: C47B244 (antibody, V domains shown)
VH: B5 VH with T30D, S31D, M93V
VL: B5 VL
notes: human IgG2sigma/kappa

- KD Ratio Cyno/Human [2]: 0.8
- Kd [3]: 2.03 nM
- Kd [4]: 2.62 nM
- % SIRP alpha Inhibition [5]: 99.8%
B14: C47B241 (antibody, V domains shown)
VH: B5 VH with T30D, S31D, Y32S, M93V
VL: B5 VL
notes: human IgG2sigma/kappa

- KD Ratio Cyno/Human [2]: 1.4
- Kd [3]: 3.51 nM
- Kd [4]: 2.57 nM
- % SIRP alpha Inhibition [5]: 97.9%
B15: C47B237 (antibody, V domains shown)
VH: B5 VH
VL: B5 VL with S30N, Y49H, G50W, N53T, T56I, R92A
notes: human IgG2sigma/kappa

- KD Ratio Cyno/Human [2]: 5
- Kd [3]: 14.6 nM
- Kd [4]: 2.92 nM
- % SIRP alpha Inhibition [5]: 9.8%
B16: C47B236 (antibody, V domains shown)
VH: B5 VH with T30K, S31D, Y32D, M93V
VL: B5 VL with S30N, N31K, R32A, R92K, S93G
notes: human IgG2sigma/kappa

- KD Ratio Cyno/Human [2]: 1
- Kd [3]: 2.08 nM
- Kd [4]: 2.02 nM
- % SIRP alpha Inhibition [5]: 99.8%
B17: C47B243 (antibody, V domains shown)
VH: B5 VH with S31D, M93V
VL: B5 VL
notes: human IgG2sigma/kappa

- binding result [1]: binds
B19: C47B227 Fab (Fab, V domains shown)
VH: B5 VH with T30D, S31D, M93V
VL: B5 VL with S30G, N31S, G50W, N53T, R92A, S93Y
notes: His-tagged Fab from HEK293

- binding result [1]: binds
B21: C47B161 Fab (Fab, V domains shown)
VH: QVQLVQSGAEVKKPGASVKVSCKASGYTFTDYNMHWVRQAPGQRLEWMGDIYPYNGGTGYNQKFKGRVTITRDTSASTAYMELSSLRSEDTAVYYCARGGWHAMDSWGQGTLVTVSS
VL: DIVMTQSPLSLPVTPGEPASISCRSRQSIVHTNRYTYLAWYLQKPGQSPQLLIYKVSNRFSGVPDRFSGSGSGTDFTLKISRVEAEDVGVYYCFQGSHVPYTFGGGTKLEIK

The next lines start with the binder.

B3: C47B230 (antibody, V domains shown)
VH: B5 VH with S31D, Y32D, M93V
VL: B5 VL with S30N, N31K, R32A, R92K, S93G
notes: human IgG2sigma/kappa
- KD Ratio Cyno/Human [2]: 3.7
- Kd [3]: 7.28 nM
- Kd [4]: 1.99 nM
- % SIRP alpha Inhibition [5]: 28.4%

B4: C47B222 Fab (Fab, V domains shown)
VH: B5 VH with S31D, M93V
VL: B5 VL with S30N, Y49H, G50W, N53T, T56I, R92A
notes: His-tagged Fab from HEK293
- binding result [1]: binds

B6: C47B233 (antibody, V domains shown)
VH: B5 VH with S31N, M93V
VL: B5 VL with S30G, N31S, G50W, N53T, R92A, S93Y
notes: human IgG2sigma/kappa
- KD Ratio Cyno/Human [2]: 0.8
- Kd [3]: 3.02 nM
- Kd [4]: 3.9 nM
- % SIRP alpha Inhibition [5]: 98.4%

B8: C47B232 (antibody, V domains shown)
VH: B5 VH with S31N, M93V
VL: B5 VL with S30N, Y49H, G50W, N53T, T56I, R92A
notes: human IgG2sigma/kappa
- KD Ratio Cyno/Human [2]: 0.9
- Kd [3]: 2.42 nM
- Kd [4]: 2.8 nM
- % SIRP alpha Inhibition [5]: 99.6%

B9: C47B234 (antibody, V domains shown)
VH: B5 VH with T30D, S31N, M93V
VL: B5 VL with S30N, N31K, R32A, R92K, S93G
notes: human IgG2sigma/kappa
- KD Ratio Cyno/Human [2]: 1.8
- Kd [3]: 7.93 nM
- Kd [4]: 4.49 nM
- % SIRP alpha Inhibition [5]: 86.6%

B12: C47B235 (antibody, V domains shown)
VH: B5 VH with T30D, S31D, G35S, M93V
VL: B5 VL with S30N, N31K, R32A, R92K, S93G
notes: human IgG2sigma/kappa
- KD Ratio Cyno/Human [2]: 1.3
- Kd [3]: 3.06 nM
- Kd [4]: 2.35 nM
- % SIRP alpha Inhibition [5]: 99.9%

B18: C47B231 (antibody, V domains shown)
VH: B5 VH with S31N, M93V
VL: B5 VL with S30N, N31K, R32A, R92K, S93G
notes: human IgG2sigma/kappa
- KD Ratio Cyno/Human [2]: 1.1
- Kd [3]: 12.3 nM
- Kd [4]: 11.3 nM
- % SIRP alpha Inhibition [5]: 83.7%

B20: C47B152 (antibody, V domains shown)
VH: B21 VH with A16S, R44G, R72A, T74E, A76T
VL: EIVLTQSPATLSLSPGERATLSCRSRQSIVHTNRYTYLAWYQQKPGQAPRLLIYKVSNRFSGIPARFSGSGSGTDFTLTISSLEPEDFAVYYCFQGSHVPYTFGGGTKLEIK
notes: HFA variant of C47B116; human IgG2sigma/kappa
- EC50 [6]: 0.26 µg/mL

B22: C47B147 (antibody, V domains shown)
VH: EVQLVQSGAEVKKPGESLKISCKGSGYTFTDYNMHWVRQMPGKGLEWMGDIYPYNGGTGYNQKFKGQVTISADKSISTAYLQWSSLKASDTAMYYCARGGWHAMDSWGQGTLVTVSS
VL: DIVMTQSPDSLAVSLGERATINCRSRQSIVHTNRYTYLAWYQQKPGQPPKLLIYKVSNRFSGVPDRFSGSGSGTDFTLTISSLQAEDVAVYYCFQGSHVPYTFGGGTKLEIK
notes: as for B20
- Kd [7]: 13.5 nM
- Kd [8]: 9.55 nM
- EC50 [6]: 0.24 µg/mL
- fold decrease of affinity against parent C47B116 [9]: > 6 fold
- KD Ratio Cyno/Human [10]: 1.4

B23: C47B148 (antibody, V domains shown)
VH: B22 VH
VL: B20 VL
notes: as for B20
- EC50 [6]: 0.09 µg/mL

B24: C47B151 (antibody, V domains shown)
VH: B21 VH with A16S, R44G, R72A, T74E, A76T
VL: B22 VL
notes: as for B20
- Kd [7]: 9.34 nM
- Kd [8]: 6.89 nM
- EC50 [6]: 0.29 µg/mL
- fold decrease of affinity against parent C47B116 [9]: > 6 fold
- KD Ratio Cyno/Human [10]: 1.4
